B1: CD2-associated protein, residues 271 to 331; numbered along this chain, Q9Y5K6 (parent)
chain: KEYCRTLFAYEGTNEDELTFKEGEIIHLISKETGEAGWWRGELNGKEGVFPDNFAVQINEL

± gives the uncertainty stated by the source.

This data set covers variants of B1. As to the kind of experiment: abundance fitness (aPCA) (normalised: wild type 0, dead -1); higher = more abundant; growth selection in yeast, the domain comes from the species named. The conditions noted are these: Homo sapiens.
For KEYCRTLFAYEGTNFDELTFKEGEIIHLISKETGEAGWWRGELNGKEGVFPDNFAVQINEL [E15F], the abundance fitness is -0.43 ± 0.11.
The same measure for KEYCRTLFAYEGTNHDELTFKEGEIIHLISKETGEAGWWRGELNGKEGVFPDNFAVQINEL [E15H]: -0.004 ± 0.18; for KEYCRTLFAYEGTNEDELTFKEGEIIHLISKEFGEAGWWRGELNGKEGVFPDNFAVQINEL [T33F]: -0.32 ± 0.13.
The same measure for KEYCRTLFAYEGTNEDELTFKEGEIIHLISKETGEAGWWRGELNGKEGVFPDNFAVQIQEL [N59Q]: -0.056 ± 0.17.
In the case of KEYCRTLFAYEGTMEDELTFKEGEIIHLISKETGEAGWWRGELNGKEGVFPDNFAVQINEL [N14M], the abundance fitness was -0.172 ± 0.081.
The same measure for KEYCRTLFAYEGTCEDELTFKEGEIIHLISKETGEAGWWRGELNGKEGVFPDNFAVQINEL [N14C]: 0.029 ± 0.097.
For KEYCRTLFAYEGTNEDELTFKEGEIIHLISKETGEAGWWRGQLNGKEGVFPDNFAVQINEL [E42Q] the value was -0.12 ± 0.11; for KEYCRTLFAYEGTNEDELTFKEGEIIHLISKETGEAGWWRGCLNGKEGVFPDNFAVQINEL [E42C], -0.201 ± 0.1; for KEYCRTLFAYEGTNEDELTFKEKEIIHLISKETGEAGWWRGELNGKEGVFPDNFAVQINEL [G23K], -0.646 ± 0.15.
As to KEYCRTLFAYEGTNEDELTFKEVEIIHLISKETGEAGWWRGELNGKEGVFPDNFAVQINEL [G23V], the abundance fitness is -1.13 ± 0.2.
On to KEYCRTLFAYEGTNEDELTFKEGEIIHLISKETGEAGWWRGELNGKEGVKPDNFAVQINEL [F50K], for which the abundance fitness was -0.993 ± 0.17.
The same measure for KVYCRTLFAYEGTNEDELTFKEGEIIHLISKETGEAGWWRGELNGKEGVFPDNFAVQINEL [E2V]: -0.222 ± 0.064; for KKYCRTLFAYEGTNEDELTFKEGEIIHLISKETGEAGWWRGELNGKEGVFPDNFAVQINEL [E2K]: -0.084 ± 0.13; for KEYCRTLFAYEGTNEDELKFKEGEIIHLISKETGEAGWWRGELNGKEGVFPDNFAVQINEL [T19K]: -0.436 ± 0.17.
For KEYCRTLFAYEGTNEDELFFKEGEIIHLISKETGEAGWWRGELNGKEGVFPDNFAVQINEL [T19F] the value was -0.592 ± 0.073; for KEYCRTLFNYEGTNEDELTFKEGEIIHLISKETGEAGWWRGELNGKEGVFPDNFAVQINEL [A9N], -0.013 ± 0.077.
For WEYCRTLFAYEGTNEDELTFKEGEIIHLISKETGEAGWWRGELNGKEGVFPDNFAVQINEL [K1W] the value was -0.543 ± 0.11.
For the variant QEYCRTLFAYEGTNEDELTFKEGEIIHLISKETGEAGWWRGELNGKEGVFPDNFAVQINEL [K1Q], the abundance fitness is -0.343 ± 0.1.
For SEYCRTLFAYEGTNEDELTFKEGEIIHLISKETGEAGWWRGELNGKEGVFPDNFAVQINEL [K1S] the value was -0.229 ± 0.091; for KEYCRTLFAYEGTNEDELTFKEGEIIHLISKETGEAGWWRGELNGKEGVFPDNFAVQSNEL [I58S], -0.233 ± 0.071; for KEYCRTLFAYEGTNEDELTFKEGEIIHLISKETGEAGWWRGELNGKEGVFPKNFAVQINEL [D52K], -0.02 ± 0.12.
The same measure for KEYCRTLFAYEGTNEDELTFKEGEIIHLIVKETGEAGWWRGELNGKEGVFPDNFAVQINEL [S30V]: -0.709 ± 0.096; for KEYCRTLFAYEGTNEDELTFKEGEIIHLISKETGEAGWWRGELNGKEGVFPDNFAKQINEL [V56K]: -0.05 ± 0.085; for KEYCRTLFAYEGTNEDELTFKEGEIIHLISKETGEAGWWRGELNGKEGVFPDNFACQINEL [V56C]: -0.314 ± 0.13.
For KEYCRTLFAYEGTNEDELTFKEGEIIHLISKYTGEAGWWRGELNGKEGVFPDNFAVQINEL [E32Y] the value was -0.167 ± 0.053; for KEYCRTLFAYEGTNEDELTFKEGEIIHLISKITGEAGWWRGELNGKEGVFPDNFAVQINEL [E32I], -0.18 ± 0.072.
Take KEYCRTLFAYEGTNEDELTFKEGEIIHLISKPTGEAGWWRGELNGKEGVFPDNFAVQINEL [E32P]: the abundance fitness is -0.553 ± 0.072.
The same measure for KEYCRTLFAYEGTNEDELTSKEGEIIHLISKETGEAGWWRGELNGKEGVFPDNFAVQINEL [F20S]: -0.564 ± 0.083.
For KEYCRTLFAYEGTNEDERTFKEGEIIHLISKETGEAGWWRGELNGKEGVFPDNFAVQINEL [L18R] the value was -0.816 ± 0.087.
The same measure for KEYCRTLFAYEGTNEDECTFKEGEIIHLISKETGEAGWWRGELNGKEGVFPDNFAVQINEL [L18C]: -0.913 ± 0.32; for KEYCRTLFAYEGTNEDELTFKEGEIIHLISKETGEAGWWRGELNGKEGWFPDNFAVQINEL [V49W]: -0.111 ± 0.07.
On to KEYCRTLFAYEGTNEDELTFKEGEIIHLISKETGEAGWWRGELNGKEGLFPDNFAVQINEL [V49L], for which the abundance fitness is -0.01 ± 0.038.
For KEYCRTLFAYEGTNEDELTFKEGEIIHNISKETGEAGWWRGELNGKEGVFPDNFAVQINEL [L28N] the value was -0.59 ± 0.11; for KEYCRTLAAYEGTNEDELTFKEGEIIHLISKETGEAGWWRGELNGKEGVFPDNFAVQINEL [F8A], 0.014 ± 0.056.
For KEYCRTLGAYEGTNEDELTFKEGEIIHLISKETGEAGWWRGELNGKEGVFPDNFAVQINEL [F8G] the value was 0.028 ± 0.059; for KEYCRTRFAYEGTNEDELTFKEGEIIHLISKETGEAGWWRGELNGKEGVFPDNFAVQINEL [L7R], -0.276 ± 0.061.
For KEYCRILFAYEGTNEDELTFKEGEIIHLISKETGEAGWWRGELNGKEGVFPDNFAVQINEL [T6I] the value was -0.5 ± 0.3.
Consider KEYCRFLFAYEGTNEDELTFKEGEIIHLISKETGEAGWWRGELNGKEGVFPDNFAVQINEL [T6F], for which the abundance fitness is -0.889 ± 0.22.
Regarding KEYCRDLFAYEGTNEDELTFKEGEIIHLISKETGEAGWWRGELNGKEGVFPDNFAVQINEL [T6D], the abundance fitness was -0.963 ± 0.45.
As to KEYCRPLFAYEGTNEDELTFKEGEIIHLISKETGEAGWWRGELNGKEGVFPDNFAVQINEL [T6P], the abundance fitness is -0.605 ± 0.24.
Consider KEYCRTLFAYEGTNEDELTFKEGEIIHLISKETGEPGWWRGELNGKEGVFPDNFAVQINEL [A36P], for which the abundance fitness was found to be 0.114 ± 0.09.
Consider KEYCRTLFAYEGTNEDELTFKEGEIIHLISKETGERGWWRGELNGKEGVFPDNFAVQINEL [A36R], for which the abundance fitness was -0.054 ± 0.046.
For KEYCRTLFAYEGTNEDELTFKEGEIDHLISKETGEAGWWRGELNGKEGVFPDNFAVQINEL [I26D] the value was -0.7 ± 0.38.

For the origin of these results see the Human Domainome abundance scans (Beltran et al. 2025).
